From article PMC7014002, “Identification and Characterization of a β-N-Acetylhexosaminidase with a Biosynthetic Activity from the Marine Bacterium Paraglaciecola hydrolytica S66^T” (International Journal of Molecular Sciences, 2020)

Tests used:
[1] = target: T1, SpHex (Streptomyces plicatus, UniProt O85361); assay: transglycosylation time course, TLC; format: biochemical; conditions: donor 100 mM; acceptor 200 mM lactose; 50 mM sodium phosphate pH 8.0, 0.5% BSA, 37 °C
T1 construct: gene hex
T1 sequence (O85361 1-506): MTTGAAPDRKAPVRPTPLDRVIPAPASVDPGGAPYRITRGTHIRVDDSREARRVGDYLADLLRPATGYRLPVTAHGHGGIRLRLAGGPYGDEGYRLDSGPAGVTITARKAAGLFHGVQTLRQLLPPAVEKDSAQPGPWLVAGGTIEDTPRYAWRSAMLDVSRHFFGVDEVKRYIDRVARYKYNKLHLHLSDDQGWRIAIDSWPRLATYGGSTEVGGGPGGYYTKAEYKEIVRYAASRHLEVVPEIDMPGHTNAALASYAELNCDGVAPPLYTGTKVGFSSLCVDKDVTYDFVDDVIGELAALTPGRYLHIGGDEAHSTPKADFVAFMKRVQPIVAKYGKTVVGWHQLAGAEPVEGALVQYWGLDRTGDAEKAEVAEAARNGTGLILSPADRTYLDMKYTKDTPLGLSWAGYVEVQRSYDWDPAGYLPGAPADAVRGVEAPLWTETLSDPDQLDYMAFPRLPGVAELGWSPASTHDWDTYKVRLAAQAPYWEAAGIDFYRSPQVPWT

[2] = substrate: CC(=O)N[C@H]1[C@H](Oc2ccc([N+](=O)[O-])cc2)O[C@H](CO)[C@@H](O)[C@@H]1O; assay: purified protein; format: biochemical, Paraglaciecola hydrolytica; conditions: two-fold diluted McIlvaine buffer pH 6.0, 0.05% BSA, 37 °C
[3] = substrate: CC(=O)N[C@H]1[C@H](Oc2ccc([N+](=O)[O-])cc2)O[C@H](CO)[C@H](O)[C@@H]1O; assay: purified protein; format: biochemical, Paraglaciecola hydrolytica; conditions: two-fold diluted McIlvaine buffer pH 6.0, 0.05% BSA, 37 °C

For `CC1=N[C@H]2[C@@H](O1)O[C@H](CO)[C@@H](O)[C@@H]2O` [NAG-oxazoline, 2-methyl-(1,2-dideoxy-α-D-glucopyrano)-oxazoline], the “transglycosylation time course, TLC” value [1] was “We here also demonstrated transglycosylation by the commercial GH20 N-acetylglucosaminidase from S. plicatus (SpHex)”.

B1: PhNah20A (Paraglaciecola hydrolytica) (protein)
chain: MYKIIIAGLGLLWSITSHGMQPLNLMPYPSEVQQQAGHFTLPSQLKVFTQHVSEARCELIKEQLEQLQQVEVLWVTAKDQANLLVEVEGVTQVMEVGGKSGELIPTLHDNEQYHLSVSPRLITLKAQTERGMLHGVQTLLQLVNRTQRSIPAVDIDDKPRFAWRGLLIDSVRHFMPVDTIKRQLRGMASAKLNVLHWHLTDDQGWRIASKAYPKLQLLASDGLFYTQQQIREVVQYAALLGIRVVPEFDVPGHASAIAVAYPELITQPGPYTMQRHWGVFEPLLDPSNPQVYQFIETIISELAELFPDVYVHIGGDEIEPTQWQQSQAVQHYMQQHQLADEHQLHAYFNQQVQQILSKYGKQMMGWDEVFATDLPKDIVVQSWRGLDSLQHIASSDYQVLLSTGYYVDQPQEAAYHYRNDPFTSFKQPSFKTQDIKHWQHWQFTMPRLKGSAVSGEFVLLSSEAGKQVLLRFNNQQARLINELEPRANLQRFTVDSWMGPSQFELDLSKDVIQQGRILIGNTPYSVSGNRLAQSTGSKALPAMLQDFVAASKVPTDLPKLHKNILGGEAAIWSEIVRADNLDLRLWPRLYAIAERLWSPATLTDEDAMYRRLTVMQTYASEVIGLEFTQQQRAGFKQLTSQDADIEPLIILAEAVEQAQYYTRHHSKFQHDNYHQLVELNQYVDYLSAQSLGLVELKRHIELFQQGDQQAKKFIEQLLQKWQKNLPKLKLLIANYPKLHSLAPLVTTLSQVVDIGQKLVAQCAKGEPLKPEHQRDVQQQLWQAAQLQQEMVVSSALAIEALAFKCRA
B1 gave a Km [2] of 430 ± 70 µM, a kcat [2] of 147 s⁻¹ and a kcat/Km [2] of 341000 M⁻¹ s⁻¹. For the same molecule, the Km [3] was 560 ± 110 µM, the kcat [3] was 193 s⁻¹ and the kcat/Km [3] was 344000 M⁻¹ s⁻¹.
